{"source": "the DeepSol protein solubility set", "data": [{"assay": "soluble on expression in E. coli; label from the status in PepcDB or PDB records", "values": [{"sequence": "MSLSHAETIKLGMSIPLSGSGANWGKGSEWLCAKAAEEIKAAGGVKVQGKVYDFECVGYDNKYNAAEGAKVAQALVSRDGVKYVAGSIGVAPVRALQSLTERRGVLLFTAAWGNSIKGPKFPLTFTQMNSVNEISEPMIAHVKKLHPEIKTVVLLNPNDATGQETEKVAKAAWEKNGVKVLASDWYERGTSEFQPIAAKLNSLKPDLVDLASTPPADAGLVFRELKALGWNGVKVVEVGTGADGLLATGKDAVDGTYLGAAVAVDGLSAHQKALNDGVKKVTGENINSVQIGFYDSVYAIKAAMEKAQSVDPQQVAKVMPDVKFQSFFGEVDFGGKSVYGSDQQMQLPVIITQISGTALKEVGRVQKEGHHHHHH", "soluble on expression in E. coli": "soluble"}, {"sequence": "MSLSHMGIFKFANGTIRVKDLEKSIEFYRDVIGMHELAREKGVVYFGCGADETFDIAIKEGGTGVEQFALQVADEEDIQYYEKKLTNLGISTQRMSNPEPGKKVALRFAAPSGHQLELALMEDRPHYLHPVAGHKGSRGIGILDADHITLHTKDVKGLAEFLQEALDFRVADVFEPAPGVWGAAWTHASDYHHDVALIGTSEDTTLHHFAFLVSGFEDMKRACDLLAQAGYKIETGPGRHGVGGNLFTYFLDPSGNRIELSAEMPRADRSVPHKVWPDFPPAFSTWGALPPESFAKGEGHHHHHH", "soluble on expression in E. coli": "soluble"}, {"sequence": "MSLSIASADRWSDPMPTTATTFEEFRQRVDYSLLQALKPDPEATSDGNDHRPRPVFSGHWVPVRPTPIPEPKYVAHSFILFAELGISDDLAHNSDFTRLFSGDASVAAEPMHSWGWATGYALSIYGTEYIQQCPFGTGNGYGDGRAMSIVEGVFEGQRWEMQLKGGGPTPYCRGADGRAVLRSSVREFLAQEFMHALGVPTSRSLTLYRSEAETVRRPWYSDHSRSFDPDVMVDNQAAISTRVAPSFLRVGQIELFARRARDNAHPNAHDELRLIVQHLIDRNYRAEIDATLPFHQQVLELARLFRGRLTALVANWMRVGYCQGNFNSDNCAAGGYTLDYGPFGFCELFDPRFQPWTGGGAHFSFFNQPAAAEANYRMFWRSLRTLLEGDDAAQRELDQLNEGFAVAMQQQLEAMWASKLALPAYDETLVTELLQLLVAAKADYTKAFRLLSTIPDHVAELHPSFYLPSSEDLDQRWQTWLQRWRERITANGDLEETSAAMRRVNPAITWREWLIAPAYQQAEQGDNSLVLELQTLFSSPYSAPSTELAARYDQLRPQQFFSAGGIAHYSCSSEGHHHHHH", "soluble on expression in E. coli": "not soluble"}, {"sequence": "MSLSIIVQKYGGTSVGSVQRIEHVANRIIATAASGKKVVVVVSAMGKTTDELVGLASEITDEPRKREMDMLLATGEQVTIALLAMALHKRGQEATSLTGWQAGMITESHHGNARILEVERARMDELLDKVHVVIVAGFQGIDQQGEIMTLGRGGSDTSAVAIAAALKAERCEIYTDVTGVFTTDPRVVKQARKLQTISYDEMLEMANLGASVLHPRAVEFAKNYEIPLLVASSMVDEPGTMIEEEGTMEQNLLVRGIAFENDVTKVTVHGLPNEIHTLPTLFAHLSAAGINVDIIIQNQTDSGMAISFSITQSSLKETLARLEELKGELSFQGIDYEEELAKVSIVGSGMVSNPGVAAKMFEILAANDIAIKMVSTSEIKVSAVIDEELMVLAVEMLHEQFKLHEEEPAVAVKVEGHHHHHH", "soluble on expression in E. coli": "soluble"}, {"sequence": "MSLSIKLVAIDIDGTLLNSQHKITPRVKEALQKANEQGVRIVLCTGRPLPGVKEQLDELALYGENDFVITYNGSLVQATKDNTIISRYTLSYEDFLEIEMYSRKVGAHLHTIDDSAIYTANRNIGKYTIHEASLVNMPLKYRTVDEMTPEMNIIKMMMIDEPEVLDPAIAKLPLHFTEKYTTVKSTPFYYEIMNKNASKGNALAKLADHLGLNKDEVMAIGDNENDLSMIDYAGIGVAMGNATENVKTIADVHTTSNDEDGVAQIIEKMVLIEGHHHHHH", "soluble on expression in E. coli": "soluble"}, {"sequence": "MSLSITVLADIHLDERYIETGSQEVFCRENQDRPEAKYSLPGCDSSESLVDAALASLQKEGPYNVMVVLGDIGPHSSESPEMTQRAIKAIADKLRRLFINKPPEQEMIILPVIGNNDVFPTYAVPTEDGDPQLLFVADQFKDLMTTEGYRQFQRRGYYSVPLSKHRVTFLVINANYYSVRHRELGEDPADQFKWVENQMIEAKAKGYRVILISHIPFGVNVYDESEALHSQYTDRIRSILRRYASTVLACLYGHYHSAYPLVLSAGEEPLVPMFICPSIAPSNYNNPGYYVFHISPLHEVDYDHYALNIEAANMQHREMHNSTELASFDCLYRFSQRYRPWLGLRALPTAQNIAHLYEHMLNDDFVWYQVRAATTSMLSERRLDFLQMAVDKAFMDAYNLSNEGHHHHHH", "soluble on expression in E. coli": "soluble"}, {"sequence": "MSLSKMAALITQEIGSFRKPEYLSMEFHKIEGTEKFKELAERATIDTLKIFENTGLDNVGIGGEMYRWEMYEHPAERIKGLIFYGMVRSFDNRYYRKGSVIDKIERRGSFHMDEVEFVAKSTKKPIKIPITGPYTMMDWSFNDHYNDRHELAMEFARIINEELKEIQSKWPYISNGRKLEIQIDEPATTTHPDEMDIVVDSVNKSIEGIDAELSLHVCYSRDYRLLYDRIPELNIDGYNLEYSNRDTTDLGVEDAKRPGFQDIKYFNEVNESLQRKKFIGVGVTDVHIDFIEPVKLIEDRIKYVLNIIKDPELVKLNPDCGLRTRSRSIGEQKLRNMVIAKNNVLKDISEGHHHHHH", "soluble on expression in E. coli": "not soluble"}, {"sequence": "MSLSKQIVILGAGYGGLLAALNVRKYYSKSEAQVTVINQYPTHQIITELHRLAAGNVSEQAVAMPLTKLFKGKDIDLKIATVESFSVDSKEIKLAGGTTLSYDALVVALGSKTAYFGIPGLEENSMVLKSAADANKIYKHVEDRIREYAKTKNEADATIVIGGGGLTGVELVGELADIMPKLAKSHGVNPKEVKLLLVEAGPKILPVLPDHLIERATTSLEARGVTFLTGLPVTNVAGNEIDLKDGQKLVANTFVWTGGVQGNPLIGESGLEVNRGRATVDAYLQSTSHKDVFVAGDSAVVFAPDGRPYPPTAQIAWQMGELIGYNLYAALEGKAFEEFAPVNSGTLASLGRKDAVATIGASNTPLKGLPASLMKEASNVRYLSHIKGLFSLAYEGHHHHHH", "soluble on expression in E. coli": "soluble"}, {"sequence": "MSLSKRILSPLQNNGILGEFYGVIIRAIEENCGRLGMNVELKMLENFSESNGADGYIFIGGDLSEKTLKEIKSRKKPFVLVDHYIPGERVDCVISDGYDGAVYATNYLISKGFKRIVHVHGPLHPYGFKMRYDGYKDAMEKAGLMPRFYECDDTEEGTRKVIDIMLNSYGTPEAIFTSNDSIAFWVIKRLKEHNIKVPDDVSVIGFDDIVDAENFDPPLTTLRVFKYEMGCLACKRLHELLTGINPHPVRILVFTQFVKRKSTKEGHHHHHH", "soluble on expression in E. coli": "soluble"}, {"sequence": "MSLSLALQYFKALSDETRLRLIHVLNRHELSVNELVSILEMGQSRVSRHLKILTGAGLLTSRRDGLWVFYSAAAEGDGRAFLDAVTPFVTTDMVLQADLDMAQKIIEERALKTRQFFNAIAEDWDELNREVLGGFDLAGAVAEAMPQCETAVDLGCGTGSVIERMLQRSQQVIGVDGSPRMLELARRRFVEGAERVSLRIGELDHLPLRDGEADFASINMVLHHLSDPGVALGEIRRVLRLGGQLMVTDFDRHDNERMRSDYGDRWLGFEGVQLEGLLREAGFTVRECRRQGVAKGLALHLMLAEKTQEGHHHHHH", "soluble on expression in E. coli": "soluble"}, {"sequence": "MSLSLGISCFLVKKKSILNKDFESKEKLSSQTFEPEKVEKFLWDIYDKYGFDFTEYRKDSIIRRIKISMLRYCMTNFDEFSHLALTDQDVFEQLFLDFSINTTNFFRDPEVFMFLREKVLLFLDSYSHIRIWCVGCSNGKEPYSLAIILKELGMLHKVQIYATDINPYVIEEAKNGLYSVSTINTDIANYKKSGGSKNFTDYFEVNGNYMKVKDDFKDNILFFQHSVIEKGILNEFQMILCRNVMIYFDIPLQKKVLRHFYNSLDSGGFLVMGKSEGMLLNNGYEYFADYNEKYSVYRRKEGHHHHHH", "soluble on expression in E. coli": "not soluble"}, {"sequence": "MSLSLRDEALEMHKRNQGKLEVKPNVKVTNKEELSLAYSPGVAEPCKDIYEDKRKVYDYTIKGNTVAVITDGTAVLGLGNIGPEASIPVMEGKAVLFKSFAGINGVPIALNTTDTEEIIKTVKLLEPNYGGINLEDISAPRCFEIEERLKKETNIPVFHDDQHGTAIVTMAGLVNALRVVNKDIAKIKVVLNGAGAAGIAIVKLLYAYGVRNMVMCDSRGAIFEGRSYGMNPTKDVVAKWTNKDKIEGSLEEVVKDADVFIGVSVANALSQDMVKSMADNPIIFAMANPNPEIIPDDAKAAGARVVGTGRSDYPNQINNVLAFPGIFRGALEVEATHINEEMKKAAVEAIADLIDSSELNEDYCIPGPFDKRVAPSVARNVAKAAMESGVARIEVDPQDVYDKTMKLTDLQEGHHHHHH", "soluble on expression in E. coli": "soluble"}, {"sequence": "MSLSLWQQCLARLQDELPATEFSMWIRPLQAELSDNTLALYAPNRFVLDWVRDKYLNNINVLLNDFCGMDAPLLRFEVGSKPLVQTISQPAQSHHNPVSVARQQPVRMAPVRPSWDNSPVQAEHTYRSNVNPKHTFDNFVEGKSNQLARAAARQVADNPGGAYNPLFLYGGTGLGKTHLLHAVGNGIIARKPNAKVVYMHSERFVQDMVKALQNNAIEEFKRYYRSVDALLIDDIQFFANKERSQEEFFHTFNALLEGNQQIILTSDRYPKEINGVEDRLKSRFGWGLTVAIEPPELETRVAILMKKADENDIRLPGEVAFFIAKRLRSNVRELEGALNRVIANANFTGRSITIDFVREALRDLLALQEKLVTIDNIQKTVAEYYKIKIADLLSKRRSRSVARPRQMAMALAKELTNHSLPEIGDAFGGRDHTTVLHACRKIEQLREESHDIKEDFSNLIRTLSSLEHHHHHH", "soluble on expression in E. coli": "soluble"}, {"sequence": "MSLSNHSSDIEVGHSMNLTNHFLVAMPSMKDPYFKRSVIYICEHNQDGAMGLMINAPIDITVGGMLKQVDIEPAYPQSHQENLKKPVFNGGPVSEDRGFILHRPRDHYESSMKMTDDIAVTTSKDILTVLGTEAEPEGYIVALGYSGWSAGQLEVELTENSWLTIEADPELIFNTPVHEKWQKAIQKLGISPAQLSSDAGHEGGSHHHHHH", "soluble on expression in E. coli": "soluble"}, {"sequence": "MSLSNNTINIALIGYGFVGKTFHAPLIRSVPGLNLAFVASRDEEKVKRDLPDVTVIASPEAAVQHPDVDLVVIASPNATHAPLARLALNAGKHVVVDKPFTLDMQEARELIALAEEKQRLLSVFHNRRWDSDYLGIRQVIEQGTLGAVKHFESHFDRFRPEVRVRWREQNVPGSGLWFDLGPHLIDQALQLFGLPQSVQGNIATLRDGAEINDWAHVVLNYPAHKVILHCSMLVAGGSSRFTVHGDKGSVIKARADQQESQLLAGVVPGSADWGQDDDPLVIYDASLQAHAQATPQGDQRQYYMLIRDALKGQIANPVPPVEALAVMAVLEAAVRSAESGMVQTLDLSDDERNTLREGHHHHHH", "soluble on expression in E. coli": "soluble"}, {"sequence": "MSLSNTGINCPFDCGLCPRHRSHTSLINIVLTNRCNLSCWYCFFYAREGEPIYEPTLEQIRMMLRNAKKEHPIGANAVQFTGGEPTLRDDLIEIIKIAKEEGYDHIQLNTDGIKLAFDPELVKKLREAGVNTLYLSYDGMTPQTNWKNHWEIPLIFENVRKAGGPGIVLVPTLIRNINDHEAGAIINFGLNHLDIVRGVNFQPISLVGRVPRKERQRFRITIAGAIKKIEEQTNGVIAKEDWYPIPIAGHIARFFEAFTGRKYYMTSHFACGAATYVFLDREEKKVIPIPRFIDVDGFVEFLVEKAEEIEKARFKSLAKLKAIGETIFVKFKQFYDEKNAPKGLDVLGLIKNAFVHGTYDALGKFHMNTLFIGMMHFMDEYNYDVERVERCVIHYAMPDGRIVPFCTFNVIPEIYRDKVQRQFSYSWEEWKKLHPDEGHHHHHH", "soluble on expression in E. coli": "not soluble"}, {"sequence": "MSLSQLFKSFDASEKTQLICFPFAGGYSASFRPLHAFLQGECEMLAAEPPGHGTNQTSAIEDLEELTDLYKQELNLRPDRPFVLFGHSMGGMITFRLAQKLEREGIFPQAVIISAIQPPHIQRKKVSHLPDDQFLDHIIQLGGMPAELVENKEVMSFFLPSFRSDYRALEQFELYDLAQIQSPVHVFNGLDDKKCIRDAEGWKKWAKDITFHQFDGGHMFLLSQTEEVAERIFAILNQHPIIQPEGGSHHHHHH", "soluble on expression in E. coli": "soluble"}, {"sequence": "MSLSRKWLNKVKWDDHGLVPVIVQEQGSNDVLMFAFMNREALQKTVETGEAVFWSRSRKRLWHKGEESGHIQQVHEIRLDCDEDVVLLRVTQVGGIACHTGRHACFFQKFEGTAEDGDWHTVEPVLKNPDDIYAGKPGHNHEEGHHHHHH", "soluble on expression in E. coli": "not soluble"}]}]}
